Experimental data as given in patent publication US20150368327A1 (YOKOHAMA CITY UNIVERSITY, published 2015).

Molecular target: T1, mouse Sema 3A protein (mouse, UniProt O08665 21-772, limits assumed)
T1 construct: Produced from mouse Sema 3A protein expressing cells; also called Mouse Sema 3A antigen
T1 sequence (looked up): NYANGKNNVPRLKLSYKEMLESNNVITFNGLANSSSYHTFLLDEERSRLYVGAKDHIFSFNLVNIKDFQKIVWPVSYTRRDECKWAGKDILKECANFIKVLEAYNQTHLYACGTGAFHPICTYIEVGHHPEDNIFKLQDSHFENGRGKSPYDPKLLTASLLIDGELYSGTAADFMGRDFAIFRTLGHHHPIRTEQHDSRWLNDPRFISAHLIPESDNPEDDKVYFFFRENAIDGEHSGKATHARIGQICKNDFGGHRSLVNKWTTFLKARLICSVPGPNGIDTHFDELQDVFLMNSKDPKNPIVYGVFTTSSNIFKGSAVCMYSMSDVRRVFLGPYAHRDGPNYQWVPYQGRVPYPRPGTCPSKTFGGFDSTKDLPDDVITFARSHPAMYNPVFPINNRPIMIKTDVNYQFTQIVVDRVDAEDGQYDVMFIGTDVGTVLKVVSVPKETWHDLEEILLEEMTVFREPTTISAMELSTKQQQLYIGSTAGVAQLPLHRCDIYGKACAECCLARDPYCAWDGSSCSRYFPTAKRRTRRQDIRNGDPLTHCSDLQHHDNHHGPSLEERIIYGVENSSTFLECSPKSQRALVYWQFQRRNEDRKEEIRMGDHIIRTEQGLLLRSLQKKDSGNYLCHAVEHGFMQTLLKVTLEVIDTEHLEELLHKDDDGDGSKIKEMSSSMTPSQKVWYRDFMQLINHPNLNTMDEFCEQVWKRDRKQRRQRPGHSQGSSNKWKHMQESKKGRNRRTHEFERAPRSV
Assay: competitive ELISA on plate-coated mouse Sema 3A; competitor biotin-labelled avian-mouse chimeric antibody (clone No. 4-2) at 60 ng/mL
Method: The obtained clone No. 4-2-derived avian-mouse chimeric antibody in Example 1, the obtained humanized antibodies in Example 2 (Humanized-1 and Humanized-2) and avian-human chimeric antibody were subjected to competitive ELISA to evaluate affinity to the antigen. CL18M (+) avian-mouse chimeric antibody, which served as a negative control, was also measured for affinity to the antigen. Particular measurement conditions were as follows.
Firstly, 2.5 μg/mL of antigen (mouse and human Sema 3A protein) was dispensed into a 384 Well MaxiSorp Plate (Nunc) and reacted overnight at 4° C. in order to coat the plate with the antigen. The next day, the plate was washed three times with 50 μL/well of washing solution (PBS containing 0.05% Tween 20), to which was added 25 μL/well of blocking solution (PBS containing 1% bovine serum albumin) and the mixture was reacted for 30 minutes. Each of humanized antibodies (Humanized-1 and Humanized-2), avian-human chimeric antibody and avian-mouse chimeric antibody was subjected to serial doubling dilution, to which was mixed anti-Sema 3A avian-mouse chimeric antibody labeled with biotin to the final concentration of 60 ng/mL, and the mixture was reacted with the antigen solid phase plate which was washed three times with 50 μL/well of washing solution for one hour. The plate was washed five times with 50 μL/well of washing solution, to which was added 20 μL/well of diluent in which streptavidin labeled with horseradish peroxidase (HRP) (Thermo Fisher Scientific K.K.) was diluted 10000 times with PBS buffer and the mixture was reacted for 30 minutes. The plate was washed five times with 50 μL/well of washing solution, to which was added 20 μL/well of TMB+(Dako) and the mixture was chromogenically reacted for 20 minutes. Subsequently, to the each well was added 20 μL, of 1M sulfuric acid to quench the reaction. The absorbance was measured at 450 nm using Infinite M1000 (Tecan Trading AG).

IC50: 0.147 µg/mL
B1: Anti-Sema 3A avian-mouse chimeric antibody (clone No. 4-2-derived) (antibody, mouse IgG2a)
heavy: AVTLDESGGGLQTPGGALSLVCKASGFTFSSYPMGWVRQAPGKGLEWVAGIDDDGDSDTRYAPAVKGRATISRDNGQSTVRLQLNNLRAEDTGTYYCAKHTGIGANSAGSIDAWGHGTEVIVSSAKTTAPSVYPLAPVCGDTTGSSVTLGCLVKGYFPEPVTLTWNSGSLSSGVHTFPAVLQSDLYTLSSSVTVTSSTWPSQSITCNVAHPASSTKVDKKIEPRGPTIKPCPPCKCPAPNLLGGPSVFIFPPKIKDVLMISLSPIVTCVVVDVSEDDPDVQISWFVNNVEVHTAQTQTHREDYNSTLRVVSALPIQHQDWMSGKEFKCKVNNKDLPAPIERTISKPKGSVRAPQVYVLPPPEEEMTKKQVTLTCMVTDFMPEDIYVEWTNNGKTELNYKNTEPVLDSDGSYFMYSKLRVEKKNWVERNSYSCSVVHEGLHNHHTTKSFSRTPGK
light: ALTQPASVSANLGGTVKITCSGGGSYTGSYYYGWYQQKSPGSALVTMIYYNNKRPSDIPSRFSGSLSGSTNTLTITGVRADDEAVYFCGSADNSGDAFGAGTTLTVLGQPKSSPSVTLFPPSSEELETNKATLVCTITDFYPGVVTVDWKVDGTPVTQGMETTQPSKQSNNKYMASSYLTLTARAWERHSSYSCQVTHEGHTVEKSLSRADCS
notes: Avian variable regions of clone No. 4-2 with mouse IgG2a heavy and mouse lambda light constant regions; also called anti-Sema 3A avian-mouse chimeric antibody (IgG)
